{"source": "paper PMC11756183", "proteins": {"B1": {"name": "GPNMB (Glycoprotein non-metastatic melanoma protein B): N249Q (protein)", "parent chain": "MESLCGVLGFLLLAAGLPLQAAKRFRDVLGHEQYPDHMREHNQLRGWSSDENEWDEHLYPVWRRGDGRWKDSWEGGRVQAVLTSDSPALVGSNITFVVNLVFPRCQKEDANGNIVYEKNCRNDLGLTSDLHVYNWTAGADDGDWEDGTSRSQHLRFPDRRPFPRPHGWKKWSFVYVFHTLGQYFQKLGRCSARVSINTVNLTAGPQVMEVTVFRRYGRAYIPISKVKDVYVITDQIPVFVTMSQKNDRNLSDEIFLRDLPIVFDVLIHDPSHFLNDSAISYKWNFGDNTGLFVSNNHTLNHTYVLNGTFNLNLTVQTAVPGPCPPPSPSTPPPPSTPPSPPPSPLPTLSTPSPSLMPTGYKSMELSDISNENCRINRYGYFRATITIVEGILEVSIMQIADVPMPTPQPANSLMDFTVTCKGATPMEACTIISDPTCQIAQNRVCSPVAVDGLCLLSVRRAFNGSGTYCVNFTLGDDASLALTSTLISIPGKDPDSPLRAVNGVLISIGCLAVLVTMVTILLYKKHKAYKPIGNCPRNTVKGKGLSVLLSHAKAPFFRGDQEKDPLLQDKPRTL"}}, "experiment": "IP and western blot in MSC-T", "conditions": "glycan lost; control: wild-type GPNMB (MSC-T/OEG)"}
{"protein": "B1", "values": [{"measurement": "expression_or_secretion", "value": "decreases"}]}
